A short description of series [1]: Solubility assessment in various solvents. It is filed as physicochemical. Conditions: for Solubility (in words): in DMSO and PBS, did not require sonication. The procedure:
A small sample containing the (co-)polymer of interest (e.g., PLA or PLGA) and the ANG-(1-7) oligopeptide (total sample size: ˜1 mg) was placed into a microfuge tube. The solvent of interest (e.g., DMSO, NMP, BB, and/or BzOH) was added in μL aliquots until the drug compound was in solution. The samples were left overnight to fully dissolve and were sonicated the following day, as was necessary to fully solubilize the sample. Solubility was determined when/if a clear solution was obtained.
Solubility assessment was performed for the ANG-(1-7) oligopeptide of the disclosure across multiple different solvents shown in Table 6, below. […] All other solvents required sonication to fully dissolve the ANG-(1-7) oligopeptide. DMSO is a suitable starting solvent for gel formulation evaluation.
Solubility of PNA5 in various solvents was tested and for potential use with this peptide. […] All other solvents required sonication to fully dissolve PNA5. DMSO is a suitable starting solvent for gel formulation evaluation using the PNA5 peptide. Benzyl benzoate and benzyl alcohol may also be useful solvents or solvent additives.

For series [2] the following is noted: FDA-approved food additive; cited from earlier work.

Where no end group is shown, it is not given here. [ ]: non-standard residue; d: D form. glycan = not defined here

As to `CC[C@H](C)[C@H](NC(=O)[C@H](Cc1ccc(O)cc1)NC(=O)[C@@H](NC(=O)[C@H](CCCNC(=N)N)NC(=O)[C@@H](N)CC(=O)O)C(C)C)C(=O)N[C@@H](Cc1c[nH]cn1)C(=O)N1CCC[C@H]1C(=O)O` [ANG-(1-7), Asp-Arg-Val-Tyr-Ile-His-Pro], the “Solubility (in words)” value in series [1] is “very high solubility”. For the same compound, the Concentration in series [1] (solvent Benzyl Alcohol) turned out to be 250000 µg/mL; in series [1] (solvent Benzyl Benzoate) it was 250000 µg/mL; in series [1] (solvent DMSO), 500000 µg/mL; in series [1] (solvent Ethoxylated Castor Oil), 250000 µg/mL; in series [1] (solvent Ethyl Laureate), 250000 µg/mL; in series [1] (solvent Ethyl Oleate) it was 250000 µg/mL. For the same compound, the Concentration is 250000 µg/mL in series [1] (solvent NMP); 250000 µg/mL in series [1] (solvent Oleic Acid); 500000 µg/mL in series [1] (solvent PBS at pH 7.4); 250000 µg/mL in series [1] (solvent Polyethylene Glycol 300); 250000 µg/mL in series [1] (solvent Triacetin); 250000 µg/mL in series [1] (solvent Triethyl Citrate).
Turning to `CC(=O)OC[C@H]1O[C@H](OC2(COC(C)=O)O[C@H](COC(=O)C(C)C)[C@@H](OC(=O)C(C)C)[C@@H]2OC(=O)C(C)C)[C@H](OC(=O)C(C)C)[C@@H](OC(=O)C(C)C)[C@@H]1OC(=O)C(C)C` (some centres unmarked) [SAIB, sucrose acetoisobutyrate], the “safe human daily intake” value in series [2] is given as “up to 20 mg/kg”.
As to “PNA5: ANG-(1-7) variant, SEQ ID NO: 10: Asp Arg Val Tyr Ile His Ser* (glycosylated serine), carboxyl terminal NH2 ([dD][dR][dV][dY][dI][dH][dS](glycan)-NH2; reading uncertain; also: printed as Asp Arg Val Tyr Ile His Ser*)”, the Concentration was 100000 µg/mL in series [1] (Table 9, solvent Benzyl Alcohol (BA)); 100000 µg/mL in series [1] (Table 9, solvent Benzyl Benzoate (BB)); 100000 µg/mL in series [1] (Table 9, solvent DMA); 500000 µg/mL in series [1] (Table 9, solvent DMSO); 100000 µg/mL in series [1] (Table 9, solvent Ethoxylated Castor Oil); 100000 µg/mL in series [1] (Table 9, solvent Ethyl Laurate). In addition, the Concentration in series [1] (Table 9, solvent Ethyl Oleate) turned out to be 100000 µg/mL; in series [1] (Table 9, solvent NMP) it was 100000 µg/mL; in series [1] (Table 9, solvent Oleic Acid), 100000 µg/mL; in series [1] (Table 9, solvent PBS), 100000 µg/mL; in series [1] (Table 9, solvent Polyethylene Glycol 300), 100000 µg/mL; in series [1] (Table 9, solvent Triacetin), 100000 µg/mL. In series [1] (Table 9, solvent Triethyl Citrate), this compound had a Concentration of 100000 µg/mL. Besides, in series [1], the “Solubility (in words)” value was “high solubility”. Besides, the “Observation at 0-24 hours” value in series [1] (solvent Benzyl Alcohol (BA), 100 mg/mL) was “Clear colorless, fluid”; in series [1] (solvent Benzyl Benzoate (BB), 100 mg/mL), “Clear colorless, fluid”; in series [1] (solvent DMA, 100 mg/mL), “Insoluble”; in series [1] (solvent DMSO, 500 mg/mL), “Clear colorless, fluid”; in series [1] (solvent Ethoxylated Castor Oil, 100 mg/mL), “Insoluble”; in series [1] (solvent Ethyl Laurate, 100 mg/mL), “Insoluble”. Also, the “Observation at 0-24 hours” value in series [1] (solvent Ethyl Oleate, 100 mg/mL) was “Insoluble”; in series [1] (solvent NMP, 100 mg/mL), “Insoluble”; in series [1] (solvent Oleic Acid, 100 mg/mL) it was “Insoluble”; in series [1] (solvent PBS, 100 mg/mL) it was “Clear colorless, fluid”; in series [1] (solvent Polyethylene Glycol 300, 100 mg/mL) it was “Insoluble”; in series [1] (solvent Triacetin, 100 mg/mL), “Insoluble”. Also, the “Observation at 0-24 hours” value in series [1] (solvent Triethyl Citrate, 100 mg/mL) is “Insoluble”.

The record behind these values is patent US20250332213A1, “EXTENDED-RELEASE INJECTABLE GEL FORMULATIONS CONTAINING ANGIOTENSIN-(1-7) OLIGOPEPTIDES OR VARIANTS THEREOF” (ProNeurogen, Inc., priority 2021, published 2025).
